Reference: patent publication US20210030885A1, “HUMANIZED ANTI-LIV1 ANTIBODIES FOR THE TREATMENT OF CANCER” (priority 2019, published 2021)

Test system: patients with metastatic breast cancer
Experiment: Phase 1 dose-escalation study, safety and tolerability of weekly LV (Day 1, 8, 15 of 3-week cycle)
Format: in vivo, human
From the text: This is a phase 1, open label, dose escalation study to evaluate the safety and tolerability of ladiratuzumab vedotin (LV) in patients with metastatic breast cancer.
Eligible patients are females at least 18 years of age who have incurable, unresectable, locally advanced or metastatic breast cancer (LA/mBC). Patients must have pathologically and radiologically confirmed hormone receptor-positive/human epidermal growth factor 2 negative (HR+/HER2−) or metastatic triple-negative breast cancer (mTNBC) with at least 1 measurable lesion per RECIST v1.1. Subjects with HR+/HER2− disease must have received no more than 1 prior line of cytotoxic chemotherapy in the locally advanced (LA)/mBC setting, either as single agent or combination therapy. Subjects with TNBC must have received 1 prior line of cytotoxic chemotherapy in the LA/mBC setting. Progression within 6 months of completion of neoadjuvant therapy is considered an LA/mBC regimen. Enrollment is open to all patients, irrespective of their LIV-1 expression level. Available and adequate archival baseline tumor sample is required. A fresh biopsy sample may be submitted in place of an archival sample if medically feasible.
Up to […] will be enrolled (42 HR+/HER2− and 42 mTNBC) into dose escalation and dose-expansion cohorts. Patients will receive LV on Day 1, Day 8, and Day 15 in every 3-week cycle. The study will have dose escalation and expansions cohorts. Patients with HR+/HER2− and TN disease will be enrolled into separate dose-expansion cohorts for each dose level.
Dose escalation will be conducted using the modified toxicity probability interval (mTPI) method according to Ji Y. et al. Clin Trials 7(6):653-63 (2010). Only 1 dose-escalation cohort will be open at a time. Dose-expansion cohorts may be opened at any dose level that has cleared dose-limiting toxicity (DLT) evaluation. Initially, up to approximately 10 patients will be enrolled at each dose level. DLT evaluation will only include data from the dose-escalation cohorts, but the totality of data from all patients at each dose level will be used to determine the recommended weekly LV dose.
LV will be administered at a dose of 0.75 mg/kg to 1.75 mg/kg by intravenous infusion over the course of 30 minutes on Day 1, Day 8, and Day 15 in every 3-week cycle.
The DLT evaluation period is the first treatment cycle (3 weeks). A DLT will be defined as any AE≥Grade 3, according to the NCI CTCAE v4.03, that is possibly, probably, or definitely related to treatment with LV, unless evidence exists that the AE has an etiology other than the investigational agent (e.g., disease progression, pre-existing medical condition, underlying disease, intercurrent illness, or concomitant medication), and/or the event has no plausible temporal relationship to administration of the investigational agent.
Patients were enrolled in the study described in Example 19. Patients had either first or second line endocrine refractory HR+/HER2− metastatic breast cancer or second line metastatic triple negative breast cancer (TNBC). LV was administered at a dose of 1.0 mg/kg, 1.25 mg/kg, or 1.5 mg/kg by intravenous infusion over the course of 30 minutes on Day 1, Day 8, and Day 15 in every 3-week cycle as described in Example 19.

ladiratuzumab vedotin [LV]
Grade 5 ischemic colitis, subjects (1 mg/kg LV, unrelated to treatment): *Grade 5 ischemic colitis was observed in 1 subject treated with 1 mg/kg LV. This was unrelated to treatment. | Grade 3 or higher TEAE: Any Adverse Event (1.0 mg/kg Q1W, n = 20): 12 (60%) n (%) | Grade 3 or higher TEAE: Diarrhoea (1.0 mg/kg Q1W, n = 20): 1 (5%) n (%) | Grade 3 or higher TEAE: Fatigue (1.0 mg/kg Q1W, n = 20): 4 (20%) n (%) | Grade 3 or higher TEAE: Hyperglycemia (1.0 mg/kg Q1W, n = 20): 3 (15%) n (%) | Grade 3 or higher TEAE: Hypophosphataemia (1.0 mg/kg Q1W, n = 20): 1 (5%) n (%) | Grade 3 or higher TEAE: Myalgia (1.0 mg/kg Q1W, n = 20): 0 n (%) | Grade 3 or higher TEAE: Nausea (1.0 mg/kg Q1W, n = 20): 1 (5%) n (%) | Grade 3 or higher TEAE: Neutropenia (1.0 mg/kg Q1W, n = 20): 2 (10%) n (%) | Grade 3 or higher TEAE: Neutrophil count decreased (1.0 mg/kg Q1W, n = 20): 1 (5%) n (%) | Grade 3 or higher TEAE: Peripheral Sensory Neuropathy (1.0 mg/kg Q1W, n = 20): 3 (15%) n (%) | SAE: Anaemia (1.0 mg/kg Q1W, n = 20): 1 (5%) n (%) | SAE: Any Adverse Event (1.0 mg/kg Q1W, n = 20): 5 (25%) n (%) | SAE: Colitis (1.0 mg/kg Q1W, n = 20): 1 (5%) n (%) | SAE: Dehydration (1.0 mg/kg Q1W, n = 20): 1 (5%) n (%) | SAE: Diabetic ketoacidosis (1.0 mg/kg Q1W, n = 20): 1 (5%) n (%) | SAE: Dyspnoea (1.0 mg/kg Q1W, n = 20): 2 (10%) n (%) | SAE: Embolism (1.0 mg/kg Q1W, n = 20): 1 (5%) n (%) | SAE: Fatigue (1.0 mg/kg Q1W, n = 20): 1 (5%) n (%) | SAE: Febrile neutropenia (1.0 mg/kg Q1W, n = 20): 1 (5%) n (%) | SAE: Hyperglycaemia (1.0 mg/kg Q1W, n = 20): 1 (5%) n (%) | SAE: Pneumonia (1.0 mg/kg Q1W, n = 20): 0 n (%) | Grade 3 or higher TEAE: Any Adverse Event (1.25 mg/kg Q1W, n = 18): 14 (78%) n (%) | Grade 3 or higher TEAE: Diarrhoea (1.25 mg/kg Q1W, n = 18): 1 (6%) n (%) | Grade 3 or higher TEAE: Fatigue (1.25 mg/kg Q1W, n = 18): 2 (11%) n (%) | Grade 3 or higher TEAE: Hyperglycemia (1.25 mg/kg Q1W, n = 18): 1 (6%) n (%) | Grade 3 or higher TEAE: Hypophosphataemia (1.25 mg/kg Q1W, n = 18): 2 (11%) n (%) | Grade 3 or higher TEAE: Myalgia (1.25 mg/kg Q1W, n = 18): 1 (6%) n (%) | Grade 3 or higher TEAE: Nausea (1.25 mg/kg Q1W, n = 18): 1 (6%) n (%) | Grade 3 or higher TEAE: Neutropenia (1.25 mg/kg Q1W, n = 18): 4 (22%) n (%) | Grade 3 or higher TEAE: Neutrophil count decreased (1.25 mg/kg Q1W, n = 18): 1 (6%) n (%) | Grade 3 or higher TEAE: Peripheral Sensory Neuropathy (1.25 mg/kg Q1W, n = 18): 6 (33%) n (%) | SAE: Anaemia (1.25 mg/kg Q1W, n = 18): 0 n (%) | SAE: Any Adverse Event (1.25 mg/kg Q1W, n = 18): 5 (28%) n (%) | SAE: Colitis (1.25 mg/kg Q1W, n = 18): 0 n (%) | SAE: Dehydration (1.25 mg/kg Q1W, n = 18): 0 n (%) | SAE: Diabetic ketoacidosis (1.25 mg/kg Q1W, n = 18): 0 n (%) | SAE: Dyspnoea (1.25 mg/kg Q1W, n = 18): 1 (6%) n (%) | SAE: Embolism (1.25 mg/kg Q1W, n = 18): 0 n (%) | SAE: Fatigue (1.25 mg/kg Q1W, n = 18): 0 n (%) | SAE: Febrile neutropenia (1.25 mg/kg Q1W, n = 18): 0 n (%) | SAE: Hyperglycaemia (1.25 mg/kg Q1W, n = 18): 1 (6%) n (%) | SAE: Pneumonia (1.25 mg/kg Q1W, n = 18): 2 (11%) n (%) | Grade 3 or higher TEAE: Any Adverse Event (1.5 mg/kg Q1W, n = 2): 2 (100%) n (%) | Grade 3 or higher TEAE: Myalgia (1.5 mg/kg Q1W, n = 2): 1 (50%) n (%) | Grade 3 or higher TEAE: Neutropenia (1.5 mg/kg Q1W, n = 2): 1 (50%) n (%) | SAE: Anaemia (1.5 mg/kg Q1W, n = 2): 0 n (%) | SAE: Any Adverse Event (1.5 mg/kg Q1W, n = 2): 1 (50%) n (%) | SAE: Colitis (1.5 mg/kg Q1W, n = 2): 0 n (%) | SAE: Dehydration (1.5 mg/kg Q1W, n = 2): 0 n (%) | SAE: Diabetic ketoacidosis (1.5 mg/kg Q1W, n = 2): 0 n (%) | SAE: Dyspnoea (1.5 mg/kg Q1W, n = 2): 0 n (%) | SAE: Embolism (1.5 mg/kg Q1W, n = 2): 0 n (%) | SAE: Fatigue (1.5 mg/kg Q1W, n = 2): 0 n (%) | SAE: Febrile neutropenia (1.5 mg/kg Q1W, n = 2): 0 n (%) | SAE: Hyperglycaemia (1.5 mg/kg Q1W, n = 2): 0 n (%) | SAE: Pneumonia (1.5 mg/kg Q1W, n = 2): 0 n (%) | incidence of a variety of adverse events, Q1W vs Q3W (3.0-4.5 mg/kg per 3 weeks on Q1W vs. 2.5 mg/kg on Q3W): lower incidence | dose limiting toxicities (Dose level 0 (1 mg/kg Q1W), +1 (1.25 mg/kg Q1W), +2 (1.5 mg/kg Q1W)): no dose limiting toxicities observed | Adverse event incidence: Abdominal Pain (Q1W, N = 40): 7 (18%) | Adverse event incidence: Alopecia (Q1W, N = 40): 10 (25%) | Adverse event incidence: Constipation (Q1W, N = 40): 10 (25%) | Adverse event incidence: Decreased Appetite (Q1W, N = 40): 11 (28%) | Adverse event incidence: Diarrhea (Q1W, N = 40): 11 (28%) | Adverse event incidence: Fatigue (Q1W, N = 40): 18 (45%) | Adverse event incidence: Hypokalemia (Q1W, N = 40): 4 (10%) | Adverse event incidence: Nausea (Q1W, N = 40): 14 (35%) | Adverse event incidence: Neutropenia (Q1W, N = 40): 10 (25%) | Adverse event incidence: Peripheral Sensory Neuropathy (Q1W, N = 40): 9 (23%) | Adverse event incidence: Vomiting (Q1W, N = 40): 8 (20%) | Grade 3 or higher TEAE: Any Adverse Event (Total, all Q1W doses, n = 40): 28 (70%) n (%) | Grade 3 or higher TEAE: Diarrhoea (Total, all Q1W doses, n = 40): 2 (5%) n (%) | Grade 3 or higher TEAE: Fatigue (Total, all Q1W doses, n = 40): 6 (15%) n (%) | Grade 3 or higher TEAE: Hyperglycemia (Total, all Q1W doses, n = 40): 4 (10%) n (%) | Grade 3 or higher TEAE: Hypophosphataemia (Total, all Q1W doses, n = 40): 3 (8%) n (%) | Grade 3 or higher TEAE: Myalgia (Total, all Q1W doses, n = 40): 2 (5%) n (%) | Grade 3 or higher TEAE: Nausea (Total, all Q1W doses, n = 40): 2 (5%) n (%) | Grade 3 or higher TEAE: Neutropenia (Total, all Q1W doses, n = 40): 7 (18%) n (%) | Grade 3 or higher TEAE: Neutrophil count decreased (Total, all Q1W doses, n = 40): 2 (5%) n (%) | Grade 3 or higher TEAE: Peripheral Sensory Neuropathy (Total, all Q1W doses, n = 40): 9 (23%) n (%) | SAE: Anaemia (Total, all Q1W doses, n = 40): 1 (3%) n (%) | SAE: Any Adverse Event (Total, all Q1W doses, n = 40): 11 (28%) n (%) | SAE: Colitis (Total, all Q1W doses, n = 40): 1 (3%) n (%) | SAE: Dehydration (Total, all Q1W doses, n = 40): 1 (3%) n (%) | SAE: Diabetic ketoacidosis (Total, all Q1W doses, n = 40): 1 (3%) n (%) | SAE: Dyspnoea (Total, all Q1W doses, n = 40): 3 (8%) n (%) | SAE: Embolism (Total, all Q1W doses, n = 40): 1 (3%) n (%) | SAE: Fatigue (Total, all Q1W doses, n = 40): 1 (3%) n (%) | SAE: Febrile neutropenia (Total, all Q1W doses, n = 40): 1 (3%) n (%) | SAE: Hyperglycaemia (Total, all Q1W doses, n = 40): 2 (5%) n (%) | SAE: Pneumonia (Total, all Q1W doses, n = 40): 2 (5.%) n (%)
